Measurements reported in publication PMC9663175, “Cryo-EM structures reveal the activation and substrate recognition mechanism of human enteropeptidase” (Nature Communications, 2022).

T1: hEP heavy chain (residues 182-784 of human enteropeptidase, after trypsin activation) (human, UniProt P98073 182-784, N-linked glycans)
T1 construct: human enteropeptidase heavy chain of the 182-1019 construct (LDLR, CUB, MAM, CUB2, LDLR2, SRCR domains); C-terminal limit 784 follows from Ile785 as the new N-terminus of the light chain; Stays linked to the light chain by the disulfide Cys772-Cys896; source: HEK293F, transfected, secreted, purified from supernatant (Ni-NTA) as the 182-1019 zymogen, then cleaved with trypsin
T1 sequence (looked up): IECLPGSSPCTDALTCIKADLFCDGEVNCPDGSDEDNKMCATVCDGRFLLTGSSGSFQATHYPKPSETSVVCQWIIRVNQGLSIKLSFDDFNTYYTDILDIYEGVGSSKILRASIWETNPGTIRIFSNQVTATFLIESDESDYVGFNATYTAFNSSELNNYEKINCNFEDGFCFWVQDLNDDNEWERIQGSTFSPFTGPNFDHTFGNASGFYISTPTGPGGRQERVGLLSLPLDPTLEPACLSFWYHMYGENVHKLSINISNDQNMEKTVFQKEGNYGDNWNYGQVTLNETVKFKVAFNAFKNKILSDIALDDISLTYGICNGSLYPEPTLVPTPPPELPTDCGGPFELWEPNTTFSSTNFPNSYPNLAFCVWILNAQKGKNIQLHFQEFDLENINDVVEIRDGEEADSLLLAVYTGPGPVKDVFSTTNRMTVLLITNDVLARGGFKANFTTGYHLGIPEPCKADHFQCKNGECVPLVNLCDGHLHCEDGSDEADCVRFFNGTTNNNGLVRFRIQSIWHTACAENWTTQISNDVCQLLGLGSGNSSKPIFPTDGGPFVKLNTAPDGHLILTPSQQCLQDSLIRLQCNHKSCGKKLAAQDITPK


Biological target: T1, hEP heavy chain (residues 182-784 of …)
Test: cryo-EM structure; trypsin-activated two-chain hEP (residues 182-1019), heavy and light chains linked by a disulfide; wild type, catalytic-triad mutant, or wild type incubated with nafamostat
Settings: both partners purified

Row | binding result | Binder
1 | binds | hEP light chain (peptidase domain, residues 785-1019), wild type (domain or fragment, human, UniProt P98073 785-1019, looked up, N-linked glycans, human enteropeptidase light chain, N-terminus Ile785 (IVGG) after trypsin cleavage; Stays linked to the heavy chain by the disulfide Cys772-Cys896; source: HEK293F, transfected, secreted, purified from supernatant (Ni-NTA) as the 182-1019 zymogen, then cleaved with trypsin) IVGGSNAKEGAWPWVVGLYYGGRLLCGASLVSSDWLVSAAHCVYGRNLEPSKWTAILGLHMKSNLTSPQTVPRLIDEIVINPHYNRRRKDNDIAMMHLEFKVNYTDYIQPICLPEENQVFPPGRNCSIAGWGTVVYQGTTANILQEADVPLLSNERCQQQMPEYNITENMICAGYEEGGIDSCQGDSGGPLMCQENNRWFLAGVTSFGYKCALPNRPGVYARVSRFTEWIQSFLH
2 | binds | hEP light chain (residues 785-1019) inhibited by nafamostat (domain or fragment, human, UniProt P98073 785-1019, looked up, Ser971 covalently bound to the reaction product of nafamostat; N-linked glycans, human enteropeptidase light chain, N-terminus Ile785 after trypsin cleavage; Stays linked to the heavy chain by the disulfide Cys772-Cys896) IVGGSNAKEGAWPWVVGLYYGGRLLCGASLVSSDWLVSAAHCVYGRNLEPSKWTAILGLHMKSNLTSPQTVPRLIDEIVINPHYNRRRKDNDIAMMHLEFKVNYTDYIQPICLPEENQVFPPGRNCSIAGWGTVVYQGTTANILQEADVPLLSNERCQQQMPEYNITENMICAGYEEGGIDSCQGDSGGPLMCQENNRWFLAGVTSFGYKCALPNRPGVYARVSRFTEWIQSFLH
3 | binds | hEP^mut light chain (peptidase domain, residues 785-1019, H825A, D876A, S971A) (domain or fragment, human, UniProt P98073 785-1019, looked up, N-linked glycans, human enteropeptidase light chain, N-terminus Ile785 after trypsin cleavage, catalytic triad mutated to Ala; The light chain of m1; also called light chain of hEP^mut) IVGGSNAKEGAWPWVVGLYYGGRLLCGASLVSSDWLVSAAACVYGRNLEPSKWTAILGLHMKSNLTSPQTVPRLIDEIVINPHYNRRRKDNAIAMMHLEFKVNYTDYIQPICLPEENQVFPPGRNCSIAGWGTVVYQGTTANILQEADVPLLSNERCQQQMPEYNITENMICAGYEEGGIDSCQGDAGGPLMCQENNRWFLAGVTSFGYKCALPNRPGVYARVSRFTEWIQSFLH
